The text below walks through data of patent publication US20230027475A1 (ADMARE THERAPEUTICS SOCIETY, published 2023).

Usually koff stands for the first-order rate constant of dissociation. A lower koff goes with slow dissociation. By kon is commonly meant the rate constant with which the complex forms. A high value points to fast association. As usually defined, the Kd is the concentration at which binding is half-saturated. Low readings indicate higher affinity, high ones lower affinity. As a reminder, the EC50 is the concentration that produces a half-maximal response. Read a low EC50 as higher potency in that assay. As usually defined, the EC50 (read off the curve) is the concentration that produces a half-maximal response.

The target of test [1] is T1, A56.hFc (Vaccinia virus, Wyeth strain, UniProt P20978 17-279).
T1 construct: also called A56 human Fc fusion protein; A56 protein
T1 chain: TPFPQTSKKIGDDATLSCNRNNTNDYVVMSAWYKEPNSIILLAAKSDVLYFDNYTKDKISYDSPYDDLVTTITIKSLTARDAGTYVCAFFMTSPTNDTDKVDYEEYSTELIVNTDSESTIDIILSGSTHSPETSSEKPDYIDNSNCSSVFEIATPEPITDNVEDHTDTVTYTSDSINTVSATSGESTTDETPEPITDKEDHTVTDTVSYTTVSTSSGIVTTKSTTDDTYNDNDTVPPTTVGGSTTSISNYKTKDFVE
As to the kind of experiment: SPR Biacore T200, antibody amine-coupled, A56.hFc as analyte, 1:1 Langmuir fit. Background: Surface plasmon resonance follows binding to a sensor surface in real time, without labels.

Test [2] deals with T1, A56.hFc. The experiment in a line: SPR Biacore T200, antibody amine-coupled, […].
Test [3] deals with T2, Vaccinia virus B5 antigen (Wyeth VV sequence) expressed on HEK cells (Vaccinia virus, Wyeth strain, UniProt O57254 18-317).
T2 construct: also called HEK-B5; HEK-B5 (GFP)
The experiment in a line: flow cytometry on HEK-B5 (GFP) cells (panel 'HEKB5'). In general terms: In flow cytometry, cells or beads pass a laser one at a time.

Test [4] concerns the target T3, Vaccinia virus A56 antigen, Western Reserve strain VVdd (eGFP) (Vaccinia virus, Western Reserve strain, UniProt Q01218 17-314).
T3 construct: also called A56 on VVdd (eGFP)-infected cells
As to the kind of experiment: ELISA on plate-coated VVdd (eGFP) virus particles, HRP anti-hIgG Fc, lower panel. On the technique in general: In an ELISA, binding on a coated surface is turned into a signal by an enzyme label.

Test [5] has as its target T4, Vaccinia virus A56 antigen (Wyeth VV sequence) expressed on HEK cells (Vaccinia virus, Wyeth strain, UniProt P20978 17-315).
T4 construct: also called HEK-A56; HEK-A56 (GFP)
T4 chain: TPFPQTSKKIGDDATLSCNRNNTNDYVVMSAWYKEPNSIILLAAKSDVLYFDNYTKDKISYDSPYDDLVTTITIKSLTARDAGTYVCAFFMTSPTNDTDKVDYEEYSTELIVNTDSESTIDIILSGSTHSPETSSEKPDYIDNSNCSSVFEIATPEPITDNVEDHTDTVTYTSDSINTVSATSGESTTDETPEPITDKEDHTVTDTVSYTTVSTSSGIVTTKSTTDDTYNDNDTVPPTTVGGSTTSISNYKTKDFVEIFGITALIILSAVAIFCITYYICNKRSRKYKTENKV
As to the kind of experiment: flow cytometry on HEK-A56 (GFP) cells.

For test [6], the target named is T4, Vaccinia virus A56 antigen (Wyeth VV …). As to the kind of experiment: immunohistochemistry (DAB) on histogel sections of HEK-A56 cells.
Test [7] deals with T5, Vaccinia virus B5 antigen, Western Reserve strain VVdd (eGFP) (Vaccinia virus, Western Reserve strain, UniProt Q01227 18-317).
T5 construct: also called B5 on VVdd (eGFP)-infected cells
As to the kind of experiment: flow cytometry on VVdd (eGFP)-infected A549 cells.

In test [8] the target is T6, B5.hFc (Vaccinia virus, Wyeth strain, UniProt O57254 18-279).
T6 construct: also called B5.hFc soluble antigen; B5 human Fc fusion protein
The experiment in a line: SPR Biacore T200, antibody amine-coupled, […].

The target of test [9] is T5, Vaccinia virus B5 antigen, Western …. The experiment in a line: flow cytometry on VVdd (eGFP)-infected A549 cells. The source holds these as a separate data set.
Test [10] has the same target. As to the kind of experiment: flow cytometry on VVdd (eGFP)-infected HT29 cells.
Test [11] addresses T6, B5.hFc. The experiment in a line: SPR Biacore T200, antibody amine-coupled, B5.hFc as analyte, 1:1 Langmuir fit.
The target of test [12] is T2, Vaccinia virus B5 antigen (Wyeth VV …). The experiment in a line: immunohistochemistry (DAB) on histogel sections of HEK-B5 cells.
Test [13] addresses T3, Vaccinia virus A56 antigen, Western …. As to the kind of experiment: flow cytometry on VVdd (eGFP)-infected A549 cells.
For test [14], the target named is T2, Vaccinia virus B5 antigen (Wyeth VV …). The experiment in a line: flow cytometry on HEK-B5 (GFP) cells.
The target of test [15] is T5, Vaccinia virus B5 antigen, Western …. The experiment in a line: ELISA on plate-coated VVdd (eGFP) virus particles, HRP anti-hIgG Fc, upper panel.
Test [16] addresses T3, Vaccinia virus A56 antigen, Western ….

B1: A050 (antibody, V domains shown)
VH: QSLEESGGDLVKPGASLTLTCTASGFSFSSSYWLCWARQAPGKGPEWIACIYNGDGSTHYASWAKGRFTISKSSSTTVTLQMTSLTAADTATYFCARDYTYNFYTYGFNLWGPGTLVTVSS
VL: FELTQTPSSVEAAVGGTVTINCQASQSVNIWASWYQQKPGQPPKLLIYKASTLASGVPSRFKGSGSGTEFTLTISDLECADAATYYCQGGYPSSSSGWAFGGGTEVVVK
notes: also called A050 (A56); anti-A56 rabbit antibody A050 hIgG1
Molecule B1 returned a koff with A56.hFc [1] of 5.07e-05 s⁻¹. Moreover, in the test with A56.hFc [1], the kon was 99800 M⁻¹ s⁻¹. This molecule displayed a dissociation constant (Kd) with A56.hFc [2] of 0.507 nM. The binding result in [3] was “no binding (tested: about 330 nM)”; in test [4], “binds”; in [5], “binds”.

B2: A073 (antibody, V domains shown)
VH: QEQLEESGGGLVKPEGSLTLTCTASGFSFSSSYYMCWVRQAPGRGLEWIACIYTSSGSAYYANWAKGRFTISRTSSTTVTLQMTRLTAADTATYFCVRNAVGSSYYLYLWGPGTLVTVSS
VL: QVLTQTPSPVSAAVGGTVTISCQASQSVAGNNYLSWYQQKPGQPPNLLIYSVSTLASGVPSRFKGSGSGTQFTLTISDLECDDAATYYCQGYYNDGIWAFGGGTEVVVK
notes: also called A073 anti-B5, Rb IgG; anti-B5-PE (A073, Rb IgG)
For the molecule B2, in test [6], the binding result is listed as “no binding (tested: 10 ug/mL)”. This molecule also had an EC50 in test [7] of 3 nM.

B3: A048 (antibody, V domains shown)
VH: B2 VH
VL: B2 VL
notes: also called anti-B5 A048 hIgG1
B3 yielded a Kd with B5.hFc [8] of 0.745 nM. Moreover, the EC50 in [9] stood at 6 nM; in test [10], 1.1 nM; in test [7], 9 nM. The same molecule gave a koff in the test with B5.hFc [11] of 2.21e-05 s⁻¹. Further, the kon in the test with B5.hFc [11] is 29700 M⁻¹ s⁻¹.

B4: A058 (antibody, V domains shown)
VH: B2 VH
VL: B2 VL
notes: also called A058 anti-B5, Rb/Mu IgG2a; A048/A058/A073
In the case of B4, the binding result in [6] is on record as “no binding (tested: 10 ug/mL)”. This molecule also came in with a 50% effective concentration (EC50) in test [7] of 3 nM.

B5: A059 (antibody, V domains shown)
VH: QSLEESGGDLVKPGASLTLTCTASGIDFSDIYYISWVRQAPGKGLEWIACTYAGSSGSTYYATWAKGRFTISKASSTTVTLQMTSLTAADTATYFCARDRYPGTSGRVYGMDLWGPGTLVTVSS
VL: VVMTQTPSSVSEPVGGTVTIKCQASQSISDLLSWYQQKPGQPPKLLIYSASTLASGVSSRFKGSGSGTEFTLTISDLECADAATYYCQCNYYSPTYGNGFGGGTEVVVK
notes: also called A059 anti-A56, Rb/Mu IgG2a; A049/A059/A056
For the molecule B5, the binding result in test [12] was “no binding (tested: 10 ug/mL)”. The EC50 in test [13] worked out at 5 nM.

B6: A049 (antibody, V domains shown)
VH: B5 VH
VL: B5 VL
notes: also called A049 (A56); A049 anti-A56 hIgG1
In the test with A56.hFc [1], B6 came in with a koff of 2.27e-05 s⁻¹ and a kon of 395000 M⁻¹ s⁻¹. This molecule had a Kd with A56.hFc [2] of at most 0.1 nM. The molecule further returned an EC50 in test [13] of 14 nM.

B7: A056 (antibody, V domains shown)
VH: B5 VH
VL: B5 VL
notes: also called A056 anti-A56, Rb IgG; anti-A56-PE (A056, Rb IgG)
B7: in test [12], the binding result is reported as “no binding (tested: 10 ug/mL)”. Besides, the EC50 in [13] worked out at 16 nM.

B8: A051 (antibody, V domains shown)
VH: QEQVEESGGGLAKPGASLTLTCEASGFTLSSYWMCWVRQAPGKGLEWIACIYGGSSGSTYYSNWAKGRFTISKTSSTTVTLQMTSLTAADTATYFCARDGSTWDYFRLWGPGTLVTVSS
VL: YDMTQTPSSVEAAVGGTVTIKCQASQSINTNYLSWYQQKPGQPPKLLIYQASTLESGVPSRFKGSGSGTEYTLTISDLECADAATYYCQGYYTVENIGNPFGGGTEVVVK
notes: also called anti-B5 rabbit antibody A051 hIgG1
In the case of B8, the binding result in [14] and in test [15] was “binds” throughout.

B9: A047 (antibody, V domains shown)
VH: QEQLEESGGDLVKPEGSLTLTCTASGFSFSSSYWICWVRQAPGKGLEWIACIYAGSGGSTYYATWAKGRFTISKTSSTTVTLQMTSLTAADTASYFCVRAYSDRSGGYSFNLWGPGTLVTVSS
VL: QVLTQTASPVSAAVGGTVTINCQASQSVDNNNYLAWYQQKPGQPPKQLIYSASSLASGVPSRFKGSGSGTQFTLTISDVQCDDAATYYCLGSYDCSDADCYAFGGGTEVVVK
notes: also called A047 (A56); anti-A56 rabbit antibody A047 hIgG1
Regarding B9, the koff with A56.hFc [1] came out at 4.5e-05 s⁻¹. This molecule came in with a kon with A56.hFc [1] of 19200 M⁻¹ s⁻¹. For the same molecule, binding with A56.hFc [2] was characterised by a dissociation constant (Kd) of 2.34 nM. Besides, the results for the binding result in test [3], in test [4] and in [5] were “no binding (tested: about 330 nM)”, “binds” and “binds”, respectively.

B10: A054 (antibody, V domains shown)
VH: QEQVVESGGGLVKPGASLTLTCTASGFTLSSSYWICWVRQAPGKGPEWIACTYNGDGSTHYASWAKGRFTISKSSSTTVTLQMTSLTAADTATYFCARDYTDAFYTYGFNLWGPGTLVTVSS
VL: DIVMTQTPASVSEPVGGTVTIKCQASQSTSSYLAWYQQKPGQPPKLLIYRASSLASGVPSRFKGSGSATEFTLTISDLECADAATYYCQTGFYGSSGHTFGGGTEVVVK
notes: also called A054 (A56); anti-A56 rabbit antibody A054 hIgG1
In the test with A56.hFc [1], B10 came in with a koff of 0.0141 s⁻¹ and a kon of 925000 M⁻¹ s⁻¹. The same molecule showed a Kd with A56.hFc [2] of 15.3 nM. Moreover, in test [16], the “EC50 (read off the curve)” value was around 5 nM. Besides, the binding result in test [3] was “no binding (tested: about 330 nM)”. Moreover, the binding result in test [5] is “binds”.
